Results published in publication PMC10397247.

Experiments:
[1] = molecular target: T1, O3-bS; assay: two-hybrid library CCNG1;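 further: natural log of median RNA to DNA barcode read ratio; higher means stronger binding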
T1 chain: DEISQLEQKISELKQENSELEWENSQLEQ

[2] = molecular target: T2, O9-bS; assay: two-hybrid library CCNG1;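 further: natural log of median RNA to DNA barcode read ratio; higher means stronger binding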
T2 chain: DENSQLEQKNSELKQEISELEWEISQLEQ

[3] = molecular target: T3, O4-bS; assay: two-hybrid library CCNG1;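 further: natural log of median RNA to DNA barcode read ratio; higher means stronger binding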
T3 chain: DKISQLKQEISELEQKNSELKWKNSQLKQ

[4] = molecular target: T4, O5-bS; assay: two-hybrid library CCNG1;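 further: natural log of median RNA to DNA barcode read ratio; higher means stronger binding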
T4 chain: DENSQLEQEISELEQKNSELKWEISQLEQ

[5] = molecular target: T5, O6-bS; assay: two-hybrid library CCNG1
T5 chain: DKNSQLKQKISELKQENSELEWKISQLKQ

[6] = molecular target: T6, O8-bS; assay: two-hybrid library CCNG1
T6 chain: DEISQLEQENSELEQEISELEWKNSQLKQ

[7] = molecular target: T7, O7-bS; assay: two-hybrid library CCNG1
T7 chain: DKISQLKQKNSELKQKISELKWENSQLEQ

[8] = molecular target: T8, P6A-bA; assay: two-hybrid library CCNG1
T8 chain: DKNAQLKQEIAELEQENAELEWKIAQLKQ

[9] = molecular target: T9, 4H568-AA; assay: two-hybrid library CCmax; settings: mean of both orientations
T9 chain: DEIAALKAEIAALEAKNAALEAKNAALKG

[10] = molecular target: T10, 4H883-AA; assay: two-hybrid library CCmax; settings: mean of both orientations
T10 chain: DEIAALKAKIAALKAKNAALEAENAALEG

[11] = molecular target: T11, 4H797-AA; assay: two-hybrid library CCmax; settings: mean of both orientations
T11 chain: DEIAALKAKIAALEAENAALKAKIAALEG

[12] = molecular target: T12, 4H717-AA; assay: two-hybrid library CCmax; settings: mean of both orientations
T12 chain: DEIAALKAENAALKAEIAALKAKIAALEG

[13] = molecular target: T13, 4H687-AA; assay: two-hybrid library CCmax; settings: mean of both orientations
T13 chain: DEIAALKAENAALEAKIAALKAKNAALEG

[14] = molecular target: T14, 4H953-AA; assay: two-hybrid library CCmax; settings: mean of both orientations
T14 chain: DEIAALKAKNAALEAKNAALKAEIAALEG

[15] = molecular target: T15, 4H4001-AA; assay: two-hybrid library CCmax; settings: mean of both orientations
T15 chain: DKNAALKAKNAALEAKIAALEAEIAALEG

[16] = molecular target: T16, 4H3855-AA; assay: two-hybrid library CCmax
T16 chain: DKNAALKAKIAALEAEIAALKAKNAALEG

[17] = molecular target: T17, 4H967-AA; assay: two-hybrid library CCmax
T17 chain: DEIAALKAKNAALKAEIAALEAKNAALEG

[18] = molecular target: T18, 4H918-AA; assay: two-hybrid library CCmax; settings: mean of both orientations
T18 chain: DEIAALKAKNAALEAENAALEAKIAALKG

[19] = molecular target: T19, 4H56-bA; assay: two-hybrid library CCNG1
T19 chain: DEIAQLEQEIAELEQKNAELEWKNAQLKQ

[20] = molecular target: T20, 4H796-bA; assay: two-hybrid library CCNG1
T20 chain: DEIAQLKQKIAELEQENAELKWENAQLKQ

[21] = molecular target: T21, 4H2585-bA; assay: two-hybrid library CCNG1
T21 chain: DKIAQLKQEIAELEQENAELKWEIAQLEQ

[22] = molecular target: T22, 4H3381-bA; assay: two-hybrid library CCNG1
T22 chain: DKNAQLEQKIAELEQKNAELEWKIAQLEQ

[23] = molecular target: T23, 4H3297-bA; assay: two-hybrid library CCNG1
T23 chain: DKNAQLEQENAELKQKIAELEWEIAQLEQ

[24] = molecular target: T24, 4H2760-bA; assay: two-hybrid library CCNG1
T24 chain: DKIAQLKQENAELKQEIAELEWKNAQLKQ

[25] = molecular target: T25, 4H730-bA; assay: two-hybrid library CCNG1
T25 chain: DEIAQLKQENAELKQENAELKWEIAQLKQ

[26] = molecular target: T26, 4H3041-bA; assay: two-hybrid library CCNG1
T26 chain: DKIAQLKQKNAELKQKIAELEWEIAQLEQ

[27] = molecular target: T27, 4H349-bA; assay: two-hybrid library CCNG1
T27 chain: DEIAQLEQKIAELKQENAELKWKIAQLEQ

[28] = molecular target: T28, 4H949-bA; assay: two-hybrid library CCNG1
T28 chain: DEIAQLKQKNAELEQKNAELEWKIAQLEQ

[29] = molecular target: T29, 4H932-bA; assay: two-hybrid library CCNG1
T29 chain: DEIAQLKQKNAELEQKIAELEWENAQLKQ

[30] = molecular target: T30, 4H2859-bA; assay: two-hybrid library CCNG1
T30 chain: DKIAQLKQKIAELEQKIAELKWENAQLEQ

[31] = molecular target: T31, 4H2931-bA; assay: two-hybrid library CCNG1
T31 chain: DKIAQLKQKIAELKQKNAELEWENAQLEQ

[32] = molecular target: T32, 4H264-bA; assay: two-hybrid library CCNG1
T32 chain: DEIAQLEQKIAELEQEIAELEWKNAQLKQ

[33] = molecular target: T33, 4H3364-bA; assay: two-hybrid library CCNG1
T33 chain: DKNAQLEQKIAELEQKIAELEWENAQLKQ

[34] = molecular target: T34, 4H346-bH; assay: two-hybrid library CCNG1
T34 chain: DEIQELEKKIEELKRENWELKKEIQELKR

[35] = molecular target: T35, 4H2898-AA; assay: two-hybrid library CCmax
T35 chain: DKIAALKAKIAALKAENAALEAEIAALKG

[36] = molecular target: 4H_GCN4; assay: two-hybrid library CCmax; settings: mean of both orientations
Chain of 4H_GCN4 (chain, as listed by the source): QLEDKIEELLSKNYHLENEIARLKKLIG

[37] = molecular target: T36, 4H3020-AA; assay: two-hybrid library CCmax; settings: mean of both orientations
T36 chain: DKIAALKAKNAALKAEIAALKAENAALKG

[38] = molecular target: T37, 4H3782-AA; assay: two-hybrid library CCmax; settings: mean of both orientations
T37 chain: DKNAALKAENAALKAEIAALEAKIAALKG

[39] = molecular target: T38, 4H895-AA; assay: two-hybrid library CCmax; settings: mean of both orientations
T38 chain: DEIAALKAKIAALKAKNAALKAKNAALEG

[40] = molecular target: T39, 4H355-AA; assay: two-hybrid library CCmax; settings: mean of both orientations
T39 chain: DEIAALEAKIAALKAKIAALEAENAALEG

[41] = molecular target: T40, 4H465-AA; assay: two-hybrid library CCmax; settings: mean of both orientations
T40 chain: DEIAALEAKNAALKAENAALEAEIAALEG

[42] = molecular target: T41, 4H3365-AA; assay: two-hybrid library CCmax; settings: mean of both orientations
T41 chain: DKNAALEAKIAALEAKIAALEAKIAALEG

[43] = molecular target: T42, 4H_BCR; assay: two-hybrid library CCmax; settings: mean of both orientations
T42 chain: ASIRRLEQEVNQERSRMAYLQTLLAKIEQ

[44] = molecular target: T43, 4H3705-AA; assay: two-hybrid library CCmax; settings: mean of both orientations
T43 chain: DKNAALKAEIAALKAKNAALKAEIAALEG

[45] = molecular target: GCN2_T; assay: two-hybrid library CCmax
[46] = molecular target: T44, 4H535-AA; assay: two-hybrid library CCmax; settings: mean of both orientations
T44 chain: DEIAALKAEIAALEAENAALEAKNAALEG

[47] = molecular target: T45, 4H58-AA; assay: two-hybrid library CCmax; settings: mean of both orientations
T45 chain: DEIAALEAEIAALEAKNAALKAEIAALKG

[48] = molecular target: T46, 4H3651-AA; assay: two-hybrid library CCmax; settings: mean of both orientations
T46 chain: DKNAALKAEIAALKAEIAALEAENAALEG

[49] = molecular target: T47, 4H_APH; assay: two-hybrid library CCmax; settings: mean of both orientations
T47 chain: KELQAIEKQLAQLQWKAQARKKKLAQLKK

[50] = molecular target: T48, 4H486-AA; assay: two-hybrid library CCmax; settings: mean of both orientations
T48 chain: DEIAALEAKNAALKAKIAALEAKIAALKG

[51] = molecular target: T49, 4H3497-bN; assay: two-hybrid library CCNG1
T49 chain: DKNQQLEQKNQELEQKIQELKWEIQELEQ

[52] = molecular target: T50, 4H3926-bN; assay: two-hybrid library CCNG1
T50 chain: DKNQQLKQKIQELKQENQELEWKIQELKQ

[53] = molecular target: T51, 4H591-bN; assay: two-hybrid library CCNG1
T51 chain: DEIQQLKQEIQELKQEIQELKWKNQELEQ

[54] = molecular target: T52, 4H626-bN; assay: two-hybrid library CCNG1
T52 chain: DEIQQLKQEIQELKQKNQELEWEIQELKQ

[55] = molecular target: T53, 4H3175-bN; assay: two-hybrid library CCNG1
T53 chain: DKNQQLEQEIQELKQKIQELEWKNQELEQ

[56] = molecular target: T54, 4H3277-bN; assay: two-hybrid library CCNG1
T54 chain: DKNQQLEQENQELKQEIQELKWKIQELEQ

[57] = molecular target: T55, 4H906-bN; assay: two-hybrid library CCNG1
T55 chain: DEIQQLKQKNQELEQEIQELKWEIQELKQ

[58] = molecular target: T56, 4H3628-bN; assay: two-hybrid library CCNG1
T56 chain: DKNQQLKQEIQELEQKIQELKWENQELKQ

[59] = molecular target: T57, 4H3414-bN; assay: two-hybrid library CCNG1
T57 chain: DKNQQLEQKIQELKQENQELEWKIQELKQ

[60] = molecular target: T58, 4H3462-bN; assay: two-hybrid library CCNG1
T58 chain: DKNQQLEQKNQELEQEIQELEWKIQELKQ

[61] = molecular target: T59, 4H3298-bN; assay: two-hybrid library CCNG1
T59 chain: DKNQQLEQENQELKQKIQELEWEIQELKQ

[62] = molecular target: T60, 4H3613-bN; assay: two-hybrid library CCNG1
T60 chain: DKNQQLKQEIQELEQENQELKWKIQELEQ

[63] = molecular target: T61, P6A-bP; assay: two-hybrid library CCNG1
T61 chain: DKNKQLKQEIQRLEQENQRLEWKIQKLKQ

[64] = molecular target: T62, P9A-bP; assay: two-hybrid library CCNG1
T62 chain: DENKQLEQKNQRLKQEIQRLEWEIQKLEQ

[65] = molecular target: T63, P7A-bP; assay: two-hybrid library CCNG1
T63 chain: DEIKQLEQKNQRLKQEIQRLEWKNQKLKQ

[66] = molecular target: T64, P8A-bP; assay: two-hybrid library CCNG1
T64 chain: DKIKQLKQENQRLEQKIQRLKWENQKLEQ

Binder: DEISQLEQKISELKQENSELEWENSQLEQ [O3-bS]
- interaction score [1]: -1.46
- interaction score [2]: -1.14
- interaction score [3]: 2.28
- interaction score [4]: 0.221
- interaction score [5]: -0.838
- interaction score [6]: -0.691
- interaction score [7]: -0.235
- interaction score [8]: -1.14

Binder: DKNAALKAKIAALEAEIAALKAKNAALEG [4H3855-AA]
- interaction score [9]: -1.35
- interaction score [10]: -1.77
- interaction score [11]: -1.29
- interaction score [12]: -1.18
- interaction score [13]: -1.5
- interaction score [14]: -1.89
- interaction score [15]: -0.86
- interaction score [16]: 1.05
- interaction score [17]: -1.53
- interaction score [18]: -2.01

Binder: DKIAQLKQEIAELEQENAELKWEIAQLEQ [4H2585-bA]
- interaction score [19]: -0.397
- interaction score [20]: -1.49
- interaction score [21]: 0.266
- interaction score [22]: -0.791
- interaction score [23]: -1.21
- interaction score [24]: 0.582
- interaction score [25]: -1.31
- interaction score [26]: 0.083
- interaction score [27]: 1.13
- interaction score [28]: -1.08
- interaction score [29]: -0.825
- interaction score [30]: -0.28
- interaction score [31]: -0.357
- interaction score [32]: -1.54
- interaction score [33]: -0.878
- interaction score [34]: 1.98

Binder: DKIAALKAKIAALKAENAALEAEIAALKG [4H2898-AA]
- interaction score [35]: 0.588
- interaction score [36]: -0.672
- interaction score [37]: -0.301
- interaction score [38]: -1.39
- interaction score [39]: -0.62
- interaction score [40]: 0.0321
- interaction score [41]: -1.49
- interaction score [42]: -1.78
- interaction score [43]: 0.271
- interaction score [44]: 1.04
- interaction score [45]: -0.0478
- interaction score [46]: 0.142
- interaction score [47]: 2.06
- interaction score [48]: -0.71
- interaction score [49]: -1.54
- interaction score [50]: 1.49

Binder: DKNQQLEQEIQELKQKIQELEWKNQELEQ [4H3175-bN]
- interaction score [51]: -0.279
- interaction score [52]: -0.72
- interaction score [53]: -0.0622
- interaction score [54]: -0.521
- interaction score [55]: 0.818
- interaction score [56]: 0.658
- interaction score [57]: -1.02
- interaction score [58]: -0.511
- interaction score [59]: -0.633
- interaction score [60]: -0.773
- interaction score [61]: -0.312
- interaction score [62]: -0.132

Binder: DKNKQLKQEIQRLEQENQRLEWKIQKLKQ [P6A-bP]
- interaction score [63]: -0.494
- interaction score [64]: -0.616
- interaction score [65]: 0.418
- interaction score [66]: -0.264
